Patent publication US20230002480A1

Assays:
Test in all cases: cell-based or functional assay
[1] = target: HIV-1 Env of pseudovirus X1632_S2_B10 (HIV-1)
[2] = target: HIV-1 Env of pseudovirus ZM214M.PL15 (HIV-1)
[3] = target: HIV-1 Env of pseudovirus WEAU_d15_410_787 (HIV-1)
[4] = target: HIV-1 Env of pseudovirus 6811.v7.c18 (HIV-1)
[5] = target: HIV-1 Env of pseudovirus 235-47 (HIV-1)
[6] = target: HIV-1 Env of pseudovirus P0402_c2_11 (HIV-1)
[7] = target: MuLV envelope (negative control pseudovirus)
[8] = target: HIV-1 Env of pseudovirus 1006_11_C3_1601 (HIV-1)
[9] = target: HIV-1 Env of pseudovirus CNE52 (HIV-1)
[10] = target: HIV-1 Env of pseudovirus CNE20 (HIV-1)
[11] = target: HIV-1 Env of pseudovirus HIV-16845-2.22 (HIV-1)
[12] = target: HIV-1 Env of pseudovirus RHPA4259.7 (HIV-1)
[13] = target: HIV-1 Env of pseudovirus 249M B10 (HIV-1)
[14] = target: HIV-1 Env of pseudovirus 231965.c01 (HIV-1)
[15] = target: HIV-1 Env of pseudovirus 3301.v1.c24 (HIV-1)
[16] = target: HIV-1 Env of pseudovirus 1056_10_TA11_1826 (HIV-1)
[17] = target: HIV-1 Env of pseudovirus CNE8 (HIV-1)
[18] = target: HIV-1 Env of pseudovirus Ce2010_F5 (HIV-1)
[19] = target: HIV-1 Env of pseudovirus Q461.e2 (HIV-1)
[20] = target: HIV-1 Env of pseudovirus TRJO4551.58 (HIV-1)
[21] = target: HIV-1 Env of pseudovirus 263-8 (HIV-1)
[22] = target: HIV-1 Env of pseudovirus ZM197M.PB7 (HIV-1)
[23] = target: HIV-1 Env of pseudovirus Ce1086_B2 (HIV-1)
[24] = target: HIV-1 Env of pseudovirus R3265.c06 (HIV-1)
[25] = target: HIV-1 Env of pseudovirus TRO.11 (HIV-1)
[26] = target: HIV-1 Env of pseudovirus 7030102001E5(Rev-) (HIV-1)
[27] = target: HIV-1 Env of pseudovirus ZM247v1(Rev-) (HIV-1)
[28] = target: HIV-1 Env of pseudovirus 246F C1G (HIV-1)
[29] = target: HIV-1 Env of pseudovirus HIV-0013095-2.11 (HIV-1)
[30] = target: HIV-1 Env of pseudovirus 3365.v2.c2 (HIV-1)
[31] = target: HIV-1 Env of pseudovirus 3103.v3.c10 (HIV-1)
[32] = target: HIV-1 Env of pseudovirus SC05_8C11_2344 (HIV-1)
[33] = target: HIV-1 Env of pseudovirus MS208.A1 (HIV-1)

B1: N49P22 (antibody, V domains shown)
V domain 1: HIQLLQSGPQVKKSGDTVRISCETSGYNFVDSRIHWVRQTPEKRLRWMGWINPLQGGVNYAPEFQGRIRMTRDTFIDTVYVDLSGLTPADTAYYYCARGIDGKSYPFHFWGHGTRVTVFS
V domain 2: RFALTQPASVSGSPGQTITITCAGGSVSWFHFPPGKTPRLIIYESSKRPSGVSPRFSGSQSGSTASLIISGLQSDDEGTYFCSILEFFGRGTLVTVLS
- IC50 [1]: > 50 µg/mL
- IC80 [1]: > 50 µg/mL
- MPI [1]: 0
- IC50 [2]: > 50 µg/mL
- IC80 [2]: > 50 µg/mL
- MPI [2]: 25
- IC50 [3]: 1.54 µg/mL
- IC80 [3]: > 50 µg/mL
- MPI [3]: 76
- IC50 [4]: 1 µg/mL
- IC80 [4]: 9.72 µg/mL
- MPI [4]: 92
- IC50 [5]: 0.037 µg/mL
- IC80 [5]: 0.373 µg/mL
- MPI [5]: 99
- IC50 [6]: 5.93 µg/mL
- IC80 [6]: > 50 µg/mL
- MPI [6]: 73
- IC50 [7]: > 50 µg/mL
- IC80 [7]: > 50 µg/mL
- MPI [7]: 8
- IC50 [8]: 0.898 µg/mL
- IC80 [8]: 14.7 µg/mL
- MPI [8]: 83
- IC50 [9]: 1.7 µg/mL
- IC80 [9]: 10 µg/mL
- MPI [9]: 91
- IC50 [10]: > 50 µg/mL
- IC80 [10]: > 50 µg/mL
- MPI [10]: 18
- IC50 [11]: 4.6 µg/mL
- IC80 [11]: 41.9 µg/mL
- MPI [11]: 87
- IC50 [12]: 0.637 µg/mL
- IC80 [12]: 5.6 µg/mL
- MPI [12]: 92
- IC50 [13]: > 50 µg/mL
- IC80 [13]: > 50 µg/mL
- MPI [13]: 4
- IC50 [14]: 2.04 µg/mL
- IC80 [14]: 35.2 µg/mL
- MPI [14]: 83
- IC50 [15]: 2.82 µg/mL
- IC80 [15]: 48.8 µg/mL
- MPI [15]: 80
- IC50 [16]: 2.99 µg/mL
- IC80 [16]: > 50 µg/mL
- MPI [16]: 69
- IC50 [17]: 5.35 µg/mL
- IC80 [17]: 40.4 µg/mL
- MPI [17]: 86
- IC50 [18]: 2.05 µg/mL
- IC80 [18]: 11.7 µg/mL
- MPI [18]: 93
- IC50 [19]: 11.2 µg/mL
- IC80 [19]: > 50 µg/mL
- MPI [19]: 66
- IC50 [20]: > 50 µg/mL
- IC80 [20]: > 50 µg/mL
- MPI [20]: 28
- IC50 [21]: 1.83 µg/mL
- IC80 [21]: 18.5 µg/mL
- MPI [21]: 89
- IC50 [22]: 2.58 µg/mL
- IC80 [22]: 25.1 µg/mL
- MPI [22]: 84
- IC50 [23]: > 50 µg/mL
- IC80 [23]: > 50 µg/mL
- MPI [23]: 0
- IC50 [24]: 3.58 µg/mL
- IC80 [24]: > 50 µg/mL
- MPI [24]: 67
- IC50 [25]: 0.283 µg/mL
- IC80 [25]: 1.36 µg/mL
- MPI [25]: 99
- IC50 [26]: > 50 µg/mL
- IC80 [26]: > 50 µg/mL
- MPI [26]: 21
- IC50 [27]: > 50 µg/mL
- IC80 [27]: > 50 µg/mL
- MPI [27]: 11
- IC50 [28]: > 50 µg/mL
- IC80 [28]: > 50 µg/mL
- MPI [28]: 10
- IC50 [29]: > 50 µg/mL
- IC80 [29]: > 50 µg/mL
- MPI [29]: 9
- IC50 [30]: 0.254 µg/mL
- IC80 [30]: 0.857 µg/mL
- MPI [30]: 98
- IC50 [31]: > 50 µg/mL
- IC80 [31]: > 50 µg/mL
- MPI [31]: 16
- IC50 [32]: 0.251 µg/mL
- IC80 [32]: 2.16 µg/mL
- MPI [32]: 97
- IC50 [33]: > 50 µg/mL
- IC80 [33]: > 50 µg/mL
- MPI [33]: 17
